Common to all, as to experiment: EMSA; 1 nM RNA, tRNA competitor; 25 mM Tris-HCl pH 7.5, 50 mM KCl, 1 mM MgCl2, 1 mM DTT, 10% glycerol, 0.1% Triton, 0.5 mg/mL BSA, 1.7 ng/uL yeast tRNA, 1 nM RNA probe; 15 min on ice then 10 min room temperature; gel at 6 C
For orientation: In EMSA bound probe runs differently from free probe, usually more slowly.

One series has as its target T1, klTRBD klEst2 171-422 (Kluyveromyces lactis, UniProt Q6CSS0 171-422).
T1 sequence: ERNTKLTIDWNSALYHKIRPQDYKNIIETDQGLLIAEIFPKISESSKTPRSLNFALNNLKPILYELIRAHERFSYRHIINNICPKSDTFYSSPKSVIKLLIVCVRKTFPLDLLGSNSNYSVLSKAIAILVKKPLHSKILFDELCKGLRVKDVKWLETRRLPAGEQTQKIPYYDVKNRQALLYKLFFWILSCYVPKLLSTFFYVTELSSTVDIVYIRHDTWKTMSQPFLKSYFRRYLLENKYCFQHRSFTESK
The following applies: protein: recombinant; tags: N-terminal His-SUMO, TEV-cleaved; label: 5'-32P when probe; hairpin (TBE) with template.

For series [1], the target named is T2, klEst2 full-length (TERT) (Kluyveromyces lactis, UniProt Q6CSS0 1-861).
T2 sequence: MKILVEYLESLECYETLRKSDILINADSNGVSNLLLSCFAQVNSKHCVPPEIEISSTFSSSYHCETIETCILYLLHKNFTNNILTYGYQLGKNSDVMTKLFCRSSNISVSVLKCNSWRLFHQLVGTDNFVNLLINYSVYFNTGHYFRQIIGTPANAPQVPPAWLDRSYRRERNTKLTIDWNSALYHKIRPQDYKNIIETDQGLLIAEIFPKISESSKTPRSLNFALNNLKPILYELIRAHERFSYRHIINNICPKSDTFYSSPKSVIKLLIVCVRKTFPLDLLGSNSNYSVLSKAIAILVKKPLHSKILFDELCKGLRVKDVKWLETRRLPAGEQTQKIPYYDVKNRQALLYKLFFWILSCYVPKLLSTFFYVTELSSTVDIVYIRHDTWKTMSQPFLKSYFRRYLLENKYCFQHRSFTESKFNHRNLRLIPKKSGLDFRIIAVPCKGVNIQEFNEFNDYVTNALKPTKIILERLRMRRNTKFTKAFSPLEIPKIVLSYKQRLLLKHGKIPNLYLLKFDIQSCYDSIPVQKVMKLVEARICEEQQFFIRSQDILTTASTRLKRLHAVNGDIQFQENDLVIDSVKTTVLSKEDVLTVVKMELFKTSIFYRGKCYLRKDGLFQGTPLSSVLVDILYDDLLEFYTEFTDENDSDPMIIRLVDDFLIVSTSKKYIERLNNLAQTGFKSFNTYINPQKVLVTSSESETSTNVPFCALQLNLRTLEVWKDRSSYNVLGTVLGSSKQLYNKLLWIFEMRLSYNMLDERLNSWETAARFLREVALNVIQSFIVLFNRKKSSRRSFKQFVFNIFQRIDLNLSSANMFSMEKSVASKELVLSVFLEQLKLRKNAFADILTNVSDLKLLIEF
The settings on record: protein: recombinant; tags: expressed in E. coli; His-SUMO tag described for the TRBD constructs, tag of full-length not clearly stated; label: 5'-32P when probe; hairpin (TBE) with template.

The next series addresses T3, klTRBD klEst2 171-404 (Kluyveromyces lactis, UniProt Q6CSS0 171-404).
T3 sequence: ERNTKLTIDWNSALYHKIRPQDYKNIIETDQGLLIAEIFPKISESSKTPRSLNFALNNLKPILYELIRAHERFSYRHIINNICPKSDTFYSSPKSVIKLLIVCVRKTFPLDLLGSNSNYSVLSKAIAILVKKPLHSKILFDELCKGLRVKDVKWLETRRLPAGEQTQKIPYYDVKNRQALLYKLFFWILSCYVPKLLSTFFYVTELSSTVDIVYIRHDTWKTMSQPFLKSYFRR
The following applies: protein: recombinant; tags: N-terminal His-SUMO, TEV-cleaved; label: 5'-32P when probe; hairpin (TBE) with template.

B1: T + TBE (structured_RNA)
RNA: GGUAAGGACCAGUGCCACGAAAGUGGUACUUCAAAUCCGUACACCACAUACCUAAUCAAAACCG
Turning to B1, the results for the binding result (with klTRBD klEst2 171-422; in series [1]; with klTRBD klEst2 171-404) were “no binding”, “binds” and “no binding”, respectively.
